Here are results for one substance from patent US20060121483A1, “Methods for detecting teneurin signalling and related screening methods” (priority 2002, published 2006).

This assay deals with TEY (teneurin-2 construct: Transmembrane, EGF-like and YD-repeats; entire long form of the extracellular domain, without cytoplasmic domain) (chicken) (UniProt Q9DER5). Put plainly: cell-based or functional assay.

On to “BDAD-CTEY (GAL4 binding domain and NFkB activation domain fused to full length teneurin-2) (from UniProt P04386 1-147; Q9DER5 1-2802)”, for which the Luciferase activity (GAL4 reporter; cleavage of the BDAD-teneurin-2 fusion) was 6 fold.
